Reference: patent publication US20190002588A1 (NATIONAL UNIVERSITY CORPORATION CHIBA UNIVERSITY, published 2019)
Each block holds one binder with its values, some of them ahead of it.

Assays:
[1] = biological target: T1, glutathione-S-transferase (GST)-His-mouse Myl9 (mouse, UniProt Q9CQ19 2-172); assay: ELISA, GST-His-mouse Myl9 coated, anti-Flag-HRP
T1 construct: The order of the pieces follows the printed name; not shown: glutathione-S-transferase tag of the pET42b vector
T1 sequence: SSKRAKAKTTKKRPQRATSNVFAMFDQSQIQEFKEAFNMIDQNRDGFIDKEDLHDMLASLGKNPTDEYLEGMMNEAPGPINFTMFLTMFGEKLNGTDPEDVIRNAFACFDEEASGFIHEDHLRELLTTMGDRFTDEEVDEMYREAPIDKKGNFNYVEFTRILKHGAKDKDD
Method: Next, ELISA was performed in order to analyze the presence or absence of association between mouse Myl9 and mouse CD69 (FIGS. 3A and 3B). Specifically, GST-His-mouse Myl3 protein and GST-His-mouse Myl9 protein were added at a concentration of 5 μg/mL, and this was incubated overnight at 4° C. to immobilize them onan ELISA plate. On the next day, Block Ace (Sumitomo Dainippon Pharma Co., Ltd.) was employed to allow blocking at […] temperature for one hour, and then this was washed three times with a wash buffer (50 mM HEPES (pH 6.5), 150 mM NaCl, and 0.02% Tween 20). Different concentration of 3× Flag mouse CD69 EC protein was added to each well, and this was reacted at room temperature for one and a half hours. In FIG. 3B, 3× Flag mouse CD69 EC protein in which the N-linked sugar chain was cleaved with PNGase F (NEB) was employed. The cleaving treatment of the N-linked sugar chain was performed by employing 1,000 U of PNGase F for 4 μg of 3× Flag mouse CD69 EC protein. After washing three times with the wash buffer, HRP-labeled anti-Flag (M2) antibody (Sigma) was added, this was reacted at room temperature for one hour, and then washed five times with the wash buffer. TMB solution (BIO-RAD) was used as the coloring substrate, and the reaction was quenched with 1N H₂SO₄. SpectraMAX Paradigm (Molecular Device) was employed to measure the value at 450 nm.

human Myl9-His [2] = biological target: T2, human Myl9-His (human, UniProt P24844 2-172, limits assumed); assay: ELISA, human Myl9-His coated, anti-Flag-HRP
T2 construct: Made in E. coli; the GST tag was cleaved with PreScission Protease
T2 sequence: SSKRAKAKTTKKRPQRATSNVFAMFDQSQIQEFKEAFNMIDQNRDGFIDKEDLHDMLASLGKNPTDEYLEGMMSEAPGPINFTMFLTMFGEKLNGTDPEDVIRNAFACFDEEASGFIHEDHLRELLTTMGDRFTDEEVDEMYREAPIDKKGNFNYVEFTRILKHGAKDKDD
Method: (§1) Evaluation of binding between human Myl9, Myl12a and Myl12b and human CD69 extracellular region protein was carried out by ELISA. Human Myl3-His, human Myl9-His, human Myl12a-His and human Myl12b-His prepared in Example 5 were coated onto the wells of a 96-well plate (Nunc), respectively. After an overnight incubation at 4° C., the wells were blocked at room temperature for one hour with 1× Block Ace (DS Pharma Biomedical Co., Ltd.). After washing three times with 0.02% Tween 20/PBS, six serial dilutions by three folds of 3× Flag-human CD69 EC protein were made from a concentration of 10 μg/mL by 50 mM NaOAc (pH 5.5)/150 mM NaCl/0.02% Tween 20 and added to the wells. After incubation at room temperature for one and half hour and washing three times with 50 mM NaOAc (pH 5.5)/150 mM NaCl/0.02% Tween 20, horseradish peroxidase-labeled anti-Flag (M2) antibody (SIGMA) was added, and this was incubated at room temperature for one hour. After washing 5 times, TMBZ (3,3′,5,5′-tetramethylbenzidine) solution was added to the wells, and this was incubated for 5-20 minutes at room temperature. An equal amount of reaction quenching solution (2N H₂SO₄) was added to the wells, and absorbance at 450 nm was read with a microplate reader (Thermo Scientific).

human Myl3-His [3] = biological target: T3, human Myl3-His (human, UniProt P08590 2-195, limits assumed); assay: ELISA, human Myl3-His coated, pH 5.5 buffer, anti-Flag-HRP
T3 construct: Made in E. coli; the GST tag was cleaved with PreScission Protease
T3 sequence (P08590 2-195 limits assumed): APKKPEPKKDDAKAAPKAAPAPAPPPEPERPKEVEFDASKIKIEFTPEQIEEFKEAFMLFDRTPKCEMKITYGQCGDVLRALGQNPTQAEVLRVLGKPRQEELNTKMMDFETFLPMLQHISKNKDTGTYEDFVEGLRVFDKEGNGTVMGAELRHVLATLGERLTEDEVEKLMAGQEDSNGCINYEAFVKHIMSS
Method: as §1

human Myl12a-His [4] = biological target: T4, human Myl12a-His (human, UniProt P19105 1-171); assay: ELISA, human Myl12a-His coated, anti-Flag-HRP
T4 construct: Made in E. coli; GST tag cleaved with PreScission Protease; DTT-treated monomer
T4 sequence: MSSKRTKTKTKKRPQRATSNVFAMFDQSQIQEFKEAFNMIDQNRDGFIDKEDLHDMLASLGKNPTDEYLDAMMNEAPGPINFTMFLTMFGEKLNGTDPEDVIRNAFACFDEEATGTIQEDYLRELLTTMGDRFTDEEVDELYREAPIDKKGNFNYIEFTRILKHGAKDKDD
Method: as §1

human Myl12b-His [5] = biological target: T5, human Myl12b-His (human, UniProt O14950 1-172); assay: ELISA, human Myl12b-His coated, anti-Flag-HRP
T5 construct: Made in E. coli; GST tag cleaved with PreScission Protease; DTT-treated monomer
T5 sequence: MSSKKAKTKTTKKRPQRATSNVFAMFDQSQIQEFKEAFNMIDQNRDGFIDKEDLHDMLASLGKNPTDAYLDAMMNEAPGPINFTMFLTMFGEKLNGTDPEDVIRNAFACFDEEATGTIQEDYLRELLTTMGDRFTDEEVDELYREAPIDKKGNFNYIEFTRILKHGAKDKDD
Method: as §1

human Myl9-His [6] = biological target: T2, human Myl9-His; assay: ELISA, human Myl9-His coated, anti-mouse IgG-HRP
Method: (§2) The binding ability against mouse/human Myl9 was evaluated following the steps below by ELISA. Mouse Myl3-His, mouse Myl9-His, human Myl3-His, and human Myl9-His were coated onto the wells of a 96-well plate (Nunc). After an overnight incubation at 4° C., the wells were blocked at room temperature for one hour with 1× Block Ace (DS Pharma Biomedical Co., Ltd.). After washing three times with 0.02% Tween 20/PBS, ten serial dilutions by four folds of Antibody A were made from a concentration of 10 μg/mL and added to the wells. After incubation at room temperature for one hour and washing three times, horseradish peroxidase-labeled anti-mouse IgG antibody (Jackson ImmunoResearch Laboratories) was added, and this was incubated at […] temperature for one hour. After washing 5 times, TMBZ (3,3′,5,5′-tetramethylbenzidine) solution was added to the wells, and this was incubated for 5-20 minutes at room temperature. An equal amount of reaction quenching solution (2N H₂SO₄) was added to the wells, and absorbance at 450 nm was read with a microplate reader (PerkinElmer).

human Myl12a-His [7] = biological target: T4, human Myl12a-His; assay: ELISA, human Myl12a-His coated, anti-mouse IgG-HRP
Method: (§3) The binding ability of Antibody A against mouse/human Myl12a and Myl12b was evaluated following the steps below by ELISA. Mouse Myl3-His, mouse Myl9-His, mouse Myl12a-His, mouse Myl12b-His, human Myl3-His, human Myl9-His, human Myl12a-His, and human Myl12b-His were coated onto the wells of a 96-well plate (Nunc). After an overnight incubation at 4° C., the wells were blocked at room temperature for one hour with 1× Block Ace (DS Pharma Biomedical Co., Ltd.). After washing three times with 0.02% Tween 20/PBS, eleven serial dilutions by four folds of Antibody A were made from a concentration of 10 μg/mL and added to the wells. After incubation at room temperature for one hour and washing three times, horseradish peroxidase-labeled anti-mouse IgG antibody (Jackson ImmunoResearch Laboratories) was added, and this was incubated at room temperature for one hour. After washing 5 times, TMBZ (3,3′,5,5′-tetramethylbenzidine) solution was added to the wells, and this was incubated for 5-20 minutes at room temperature. An equal amount of reaction quenching solution (2N H₂SO₄) was added to the wells, and absorbance at […] was read with a microplate reader (Thermo Scientific).

[8] = biological target: T6, mouse/human Myl9 peptide-BSA (mouse and human (common sequence), added C-terminal Cys coupled to maleimide-activated BSA); assay: ELISA, mouse/human Myl9 peptide-BSA coated, hybridoma supernatant
T6 construct: Synthetic peptide conjugated to bovine serum albumin
T6 peptide: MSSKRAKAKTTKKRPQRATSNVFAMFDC
Method: ELISA employing mouse/human Myl9 peptide-BSA was carried out according to the following steps. Mouse/human Myl9 peptide-BSA was coated onto the wells of a 96-well plate (Num). After an overnight incubation at 4° C., the wells were blocked at room temperature for one hour with 1× Block Ace (DS Pharma Biomedical Co., Ltd.). After washing three times with 0.02% Tween 20/PBS, the culture supernatant of said fused cells was added to the wells. After incubation at room temperature for one hour and washing three times, horseradish peroxidase-labeled anti-mouse IgG antibody (Jackson ImmunoResearch Laboratories) was added, and this was incubated at room temperature for one hour. After washing 5 times, TMBZ (3,3′,5,5′-tetramethylbenzidine) solution was added to the wells, and this was incubated for 5-20 minutes at room temperature. An equal amount of reaction quenching solution (2N H₂SO₄) was added to the wells, and absorbance at 450 nm was read with a microplate reader (PerkinElmer).

mouse Myl12a-His = biological target: T7, mouse Myl12a-His (mouse, UniProt Q3THE2 1-172 at identity 1.00), limits assumed); assay: ELISA, mouse Myl12a-His coated, anti-mouse IgG-HRP
T7 construct: Made in E. coli; GST tag cleaved with PreScission Protease; DTT-treated monomer
T7 chain: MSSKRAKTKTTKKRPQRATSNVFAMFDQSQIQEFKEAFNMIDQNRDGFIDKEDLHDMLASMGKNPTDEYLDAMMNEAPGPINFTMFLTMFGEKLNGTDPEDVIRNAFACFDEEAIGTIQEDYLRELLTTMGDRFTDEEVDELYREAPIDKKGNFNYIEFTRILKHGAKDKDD
Method: as §3

mouse Myl9-His = biological target: T8, mouse Myl9-His (mouse, UniProt Q9CQ19 2-172, limits assumed); assay: ELISA, mouse Myl9-His coated, anti-mouse IgG-HRP
T8 construct: Made in E. coli; the GST tag was cleaved with PreScission Protease and leftover vector residues are not described
T8 sequence: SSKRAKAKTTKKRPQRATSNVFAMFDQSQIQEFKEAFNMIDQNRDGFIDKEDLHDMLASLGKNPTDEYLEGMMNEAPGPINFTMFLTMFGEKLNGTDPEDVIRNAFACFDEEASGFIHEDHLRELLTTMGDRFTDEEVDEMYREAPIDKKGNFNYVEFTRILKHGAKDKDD
Method: as §2

mouse Myl12b-His = biological target: T9, mouse Myl12b-His (mouse, UniProt Q3THE2 1-172, limits assumed); assay: ELISA, mouse Myl12b-His coated, anti-mouse IgG-HRP
T9 construct: Made in E. coli; GST tag cleaved with PreScission Protease; DTT-treated monomer
T9 sequence: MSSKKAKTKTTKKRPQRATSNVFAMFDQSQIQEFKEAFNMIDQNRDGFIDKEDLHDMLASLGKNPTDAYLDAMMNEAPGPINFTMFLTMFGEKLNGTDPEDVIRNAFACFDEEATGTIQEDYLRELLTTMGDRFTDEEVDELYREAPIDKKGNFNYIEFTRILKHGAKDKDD
Method: as §3

human Myl12b-His [9] = biological target: T5, human Myl12b-His; assay: ELISA, human Myl12b-His coated, anti-mouse IgG-HRP
Method: as §3

human Myl3-His [10] = biological target: T3, human Myl3-His; assay: ELISA, human Myl3-His coated, anti-mouse IgG-HRP
Method: as §2

mouse Myl3-His = biological target: T10, mouse Myl3-His (mouse, UniProt P09542 2-204, limits assumed); assay: ELISA, mouse Myl3-His coated, anti-mouse IgG-HRP
T10 construct: Made in E. coli; the GST tag was cleaved with PreScission Protease
T10 sequence (P09542 2-204 limits assumed): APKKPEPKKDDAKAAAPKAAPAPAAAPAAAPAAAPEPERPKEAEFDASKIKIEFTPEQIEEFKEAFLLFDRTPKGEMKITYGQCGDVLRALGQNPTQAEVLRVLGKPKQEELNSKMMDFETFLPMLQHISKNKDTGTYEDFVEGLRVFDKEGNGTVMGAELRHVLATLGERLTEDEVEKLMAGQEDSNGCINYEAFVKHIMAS
Method: as §2

binding result [1]: binds
B1: 3× Flag-mouse CD69 EC (with sugar chain) (receptor, not shown: small tags and cut ends)
chain: NVGKYNCPGLYEKLESSDHHVATCKNEWISYKRTCYFFSTTTKSWALAQRSCSEDAATLAVIDSEKDMTFLKRYSGELEHWIGLKNEANQTWKWANGKEFNSWFNLTGSGRCVSVNHKNVTAVDCEANFHWVCSKPSR
modifications: N-linked sugar chains present (made in Expi293F cells, not PNGase F treated)
notes: Secreted from Expi293F cells and purified on Anti-Flag M2 gel; also called 3× Flag mouse CD69 EC protein; mouse CD69 extracellular region protein

binding result [1]: binds
B2: PNGase F-treated 3× Flag-mouse CD69 EC (without sugar chain) (receptor, not shown: small tags and cut ends)
chain: NVGKYNCPGLYEKLESSDHHVATCKNEWISYKRTCYFFSTTTKSWALAQRSCSEDAATLAVIDSEKDMTFLKRYSGELEHWIGLKNEANQTWKWANGKEFNSWFNLTGSGRCVSVNHKNVTAVDCEANFHWVCSKPSR
modifications: N-linked sugar chain cleaved with PNGase F
notes: also called 3× Flag-mouse CD69 EC subjected to sugar chain cleaving treatment; mouse CD69 extracellular region protein

binding result (human Myl9-His [2]): binds | binding result (human Myl3-His [3]): no binding (tested: 10 µg/mL) | binding result (human Myl12a-His [4]): binds | binding result (human Myl12b-His [5]): binds
B3: 3× Flag-human CD69 EC protein (receptor, not shown: small tags and cut ends)
chain: GQYNCPGQYTFSMPSDSHVSSCSEDWVGYQRKCYFISTVKRSWTSAQNACSEHGATLAVIDSEKDMNFLKRYAGREEHWVGLKKEPGHPWKWSNGKEFNNWFNVTGSDKCVFLKNTEVSSMECEKNLYWICNKPYK
notes: Made in Expi293F cells and purified on Anti-Flag M2 gel; The dimerized protein was collected by Superdex200 or Superdex75; also called human CD69 extracellular region protein; extracellular region of human CD69

binding result (human Myl9-His [6]): binds | binding result (human Myl12a-His [7]): binds | binding result [8]: binds | binding result (mouse Myl12a-His): binds | binding result (mouse Myl9-His): binds | binding result (mouse Myl12b-His): binds | binding result (human Myl12b-His [9]): binds | binding result (human Myl3-His [10]): no binding (tested: 10 µg/mL) | binding result (mouse Myl3-His): no binding (tested: 10 µg/mL)
B4: mouse anti-mouse/human Myl9 monoclonal antibody (Antibody A) (antibody, V domains shown)
VH: QVQLQQSGAEVVRPGASVTLSCKASGYTFTDYEMHWVKQTPVHGLEWIGAIDPETGGTAYNQKFKGKAILTADKSSNTAYMELRSLTSEDSAVYYCTDYDYDGFAYWGQGTLVTVSA
VL: DVVMTQTPLSLPVSLGDQASISCRSSQSLVHSNGNTYLHWYLQKPGRSPKLLISKVSNRFSGVPDRFSGSGSGTDFTLKITRVEAEDLGVYFCSQNTHVPPLTFGAGTKLELK
notes: Hybridoma antibody purified with Protein A; isotype printed as 'IgG2e, kappa'; also called mAb A; anti-mouse/human Myl9 antibody
